Literature values as cited in paper PMC11603612.

Experiments:
Asp129 = Asp129 (UniProt position 112, EEQNNDALSPA)
Asp145 = Asp145 (UniProt position 128, AEHNLDASAIK)
Asp162 = Asp162 (UniProt position 145, RLTREDVEKHL)
Glu141 = Glu141 (UniProt position 124, RRLLAEHNLDA)
Glu161 = Glu161 (UniProt position 144, GRLTREDVEKH)
Glu164 = Glu164 (UniProt position 147, TREDVEKHLAK)
His142 = His142 (UniProt position 125, RLLAEHNLDAS)
His166 = His166 (UniProt position 149, EDVEKHLAKAP)
Asp8 [1] = system: Asp8
Asp107 = Asp107 (UniProt position 134, DGGTYDIYTTT)
Asp12 = Asp12 (UniProt position 39, WQNWTDGGGIV)
Asp120 = Asp120 (UniProt position 147, NAPSIDGDRTT)
Asp122 = Asp122 (UniProt position 149, PSIDGDRTTFT)
Asp5 = Asp5 (UniProt position 32, SAASTDYWQNW)
Glu79 = Glu79 (UniProt position 106, RSPLIEYYVVD)
His157 = His157 (UniProt position 184, NAWKSHGMNLG)
Asp121 = Asp121 (UniProt position 147, VPVHFDASV--)
Asp14 = Asp14 (UniProt position 40, ERQHMDSSTSA)
Asp38 = Asp38 (UniProt position 64, RNLTKDRCKPV)
Asp53 = Asp53 (UniProt position 79, HESLADVQAVC)
Asp83 = Asp83 (UniProt position 109, TMSITDCRETG)
Glu111 = Glu111 (UniProt position 137, IIVACEGNPYV)
Glu2 = Glu2 (UniProt position 28, PSLGKETAAAK)
Glu49 = Glu49 (UniProt position 75, NTFVHESLADV)
Glu86 = Glu86 (UniProt position 112, ITDCRETGSSK)
Glu9 = Glu9 (UniProt position 35, AAAKFERQHMD)
His105 = His105 (UniProt position 131, TQANKHIIVAC)
His119 = His119 (UniProt position 145, PYVPVHFDASV)
His12 = His12 (UniProt position 38, KFERQHMDSST)
His48 = His48 (UniProt position 74, VNTFVHESLAD)
Asp44 = Asp44 (UniProt position 794, ENHLSDEDFKA)
Asp46 = Asp46 (UniProt position 796, HLSDEDFKAVF)
Glu45 = Glu45 (UniProt position 795, NHLSDEDFKAV)
Glu72 = Glu72 (UniProt position 822, QNLKKEKGLF-)
Asp19 = Asp19 (UniProt position 101, LIKAIDGDTVK)
Asp21 = Asp21 (UniProt position 103, KAIDGDTVKLM)
Asp40 = Asp40 (UniProt position 122, RLLLVDTPETK)
Asp95 = Asp95 (UniProt position 177, AYIYADGKMVN)
Glu10 = Glu10 (UniProt position 92, KKLHKEPATLI)
Glu101 = Glu101 (UniProt position 183, GKMVNEALVRQ)
Glu122 = Glu122 (UniProt position 204, PNNTHEQHLRK)
Glu129 [2] = target: Glu129 (UniProt position 211, HLRKSEAQAKK)
Glu135 [3] = target: Glu135 (UniProt position 217, AQAKKEKLNIW)
Glu43 = Glu43 (UniProt position 125, LVDTPETKHPK)
Glu52 = Glu52 (UniProt position 134, PKKGVEKYGPE)
Glu57 [4] = target: Glu57 (UniProt position 139, EKYGPEASAFT)
Glu67 = Glu67 (UniProt position 149, TKKMVENAKKI)
Glu73 = Glu73 (UniProt position 155, NAKKIEVEFDK)
Glu75 = Glu75 (UniProt position 157, KKIEVEFDKGQ)
His121 = His121 (UniProt position 203, KPNNTHEQHLR)
His8 = His8 (UniProt position 90, STKKLHKEPAT)
Asp23 = Asp23 (UniProt position 23, IKNVADGYANN)
Asp8 [5] = target: Asp8 (UniProt position 8, VIFLKDVKGKG)
Glu17 = Glu17 (UniProt position 17, KGKKGEIKNVA)
Glu38 = Glu38 (UniProt position 38, QGLAIEATPAN)
Glu48 [6] = target: Glu48 (UniProt position 48, NLKALEAQKQK)
Glu54 = Glu54 (UniProt position 54, AQKQKEQRQAA)
Asp10 = Asp10 (UniProt position 10, VEIFTDGSCLG)
Asp108 = Asp108 (UniProt position 108, LWQRLDAALGQ)
Asp134 = Asp134 (UniProt position 134, ENERCDELARA)
Asp70 = Asp70 (UniProt position 70, VILSTDSQYVR)
Asp94 = Asp94 (UniProt position 94, GWKTADKKPVK)
Glu119 = Glu119 (UniProt position 119, HQIKWEWVKGH)
Glu129 [7] = target: Glu129 (UniProt position 129, HAGHPENERCD)
Glu131 = Glu131 (UniProt position 131, GHPENERCDEL)
Glu135 [8] = target: Glu135 (UniProt position 135, NERCDELARAA)
Glu147 = Glu147 (UniProt position 147, MNPTLEDTGYQ)
Glu154 = Glu154 (UniProt position 154, TGYQVEV----)
Glu32 = Glu32 (UniProt position 32, RYRGREKTFSA)
Glu48 [9] = target: Glu48 (UniProt position 48, TNNRMELMAAI)
Glu57 [10] = target: Glu57 (UniProt position 57, AIVALEALKEH)
Glu6 [11] = target: Glu6 (UniProt position 6, MLKQVEIFTDG)
Glu61 = Glu61 (UniProt position 61, LEALKEHCEVI)
Glu64 = Glu64 (UniProt position 64, LKEHCEVILST)
His124 = His124 (UniProt position 124, EWVKGHAGHPE)
His127 = His127 (UniProt position 127, KGHAGHPENER)
His62 = His62 (UniProt position 62, EALKEHCEVIL)
Asp16 = Asp16 (UniProt position 16, FQEALDAAGDK)
Asp20 = Asp20 (UniProt position 20, LDAAGDKLVVV)
Asp58 = Asp58 (UniProt position 58, IFLEVDVDDCQ)
Asp60 = Asp60 (UniProt position 60, LEVDVDDCQDV)
Asp61 = Asp61 (UniProt position 61, EVDVDDCQDVA)
Asp64 = Asp64 (UniProt position 64, VDDCQDVASEC)
Glu103 = Glu103 (UniProt position 103, EATINELV---)
Glu13 = Glu13 (UniProt position 13, KTAFQEALDAA)
Glu47 = Glu47 (UniProt position 47, FHSLSEKYSNV)
Glu56 = Glu56 (UniProt position 56, NVIFLEVDVDD)
Glu6 [12] = target: Glu6 (UniProt position 6, MVKQIESKTAF)
Glu68 = Glu68 (UniProt position 68, QDVASECEVKC)
Glu70 = Glu70 (UniProt position 70, VASECEVKCMP)
Glu88 = Glu88 (UniProt position 88, GQKVGEFSGAN)
Glu95 = Glu95 (UniProt position 95, SGANKEKLEAT)
Glu98 = Glu98 (UniProt position 98, NKEKLEATINE)

For “BBL (peripheral subunit-binding domain of 2-oxoglutarate dehydrogenase E2) (Escherichia coli (inferred))”, the pKa (Asp129) is given as 3.9, the pKa (Asp145) is given as 3.7 and the pKa (Asp162) is given as 3.2. For the same substance, the pKa (Glu141) was 4.5, the pKa (Glu161) was 3.7 and the pKa (Glu164) was 4.5. The pKa (His142) was 6.5 and the pKa (His166) was 5.4.

For “Turkey ovomucoid third domain (OMTKY3) (Meleagris gallopavo (inferred))”, the pKa (Asp27) is given as 2.3, the pKa (Asp8 [1]) is given as 2.7 and the pKa (Glu11) is given as 4.1. The pKa (Glu20) was 3.2, the pKa (Glu44) was 4.8 and the pKa (His53) was 7.5.

For “Xylanase (family 11 endo-1,4-beta-xylanase) (Bacillus circulans (inferred))”, the pKa (Asp107) is listed as 2.7, the pKa (Asp12) is listed as 2.5 and the pKa (Asp120) is listed as 3.2. The pKa (Asp122) was 3.6, the pKa (Asp5) was 3 and the pKa (Glu79) was 4.6. The pKa (His157) was 6.5.

In the case of “Ribonuclease A (RNaseA) (Bos taurus (inferred))”, the pKa (Asp121) is listed as 3.1, the pKa (Asp14) is listed as 2 and the pKa (Asp38) is listed as 3.5. The pKa (Asp53) was 3.9, the pKa (Asp83) was 3.5 and the pKa (Glu111) was 3.6. For the same substance, the pKa (Glu2) was 2.8, the pKa (Glu49) was 4.7 and the pKa (Glu86) was 4.1. For the same substance, the pKa (Glu9) was 4, the pKa (His105) was 6.7 and the pKa (His119) was 6.1. The pKa (His12) was 6.2 and the pKa (His48) was 6.

In the case of “Villin headpiece subdomain HP36 (Gallus gallus (inferred))”, the pKa (Asp44) is listed as 3.1, the pKa (Asp46) is listed as 3.5 and the pKa (Glu45) is listed as 4. The pKa (Glu72) was 4.4.

For “Staphylococcal nuclease (SNase) (Staphylococcus aureus (inferred))”, the pKa (Asp19) is listed as 2.2, the pKa (Asp21) is listed as 6.5 and the pKa (Asp40) is listed as 3.9. The pKa (Asp95) was 2.2, the pKa (Glu10) was 2.8 and the pKa (Glu101) was 3.8. The pKa (Glu122) was 3.9, the pKa (Glu129 [2]) was 3.8 and the pKa (Glu135 [3]) was 3.8. The pKa (Glu43) was 4.3, the pKa (Glu52) was 3.9 and the pKa (Glu57 [4]) was 3.5. For the same substance, the pKa (Glu67) was 3.8, the pKa (Glu73) was 3.3 and the pKa (Glu75) was 3.3. For the same substance, the pKa (His121) was 5.2 and the pKa (His8) was 6.5.

For “N-terminal domain of ribosomal protein L9 (NTL / NTL9) (Geobacillus stearothermophilus (inferred))”, the pKa (Asp23) is given as 3.1, the pKa (Asp8 [5]) is given as 3 and the pKa (Glu17) is given as 3.6. For the same substance, the pKa (Glu38) was 4, the pKa (Glu48 [6]) was 4.2 and the pKa (Glu54) was 4.2.

In the case of “Ribonuclease HI (RNaseH) (Escherichia coli)”, the pKa (Asp10) is listed as 6.1, the pKa (Asp108) is listed as 3.2 and the pKa (Asp134) is listed as 4.1. For the same substance, the pKa (Asp70) was 2.6, the pKa (Asp94) was 3.2 and the pKa (Glu119) was 4.1. The pKa (Glu129 [7]) was 3.6, the pKa (Glu131) was 4.3 and the pKa (Glu135 [8]) was 4.3. For the same substance, the pKa (Glu147) was 4.2, the pKa (Glu154) was 4.4 and the pKa (Glu32) was 3.6. For the same substance, the pKa (Glu48 [9]) was 4.4, the pKa (Glu57 [10]) was 3.2 and the pKa (Glu6 [11]) was 4.5. The pKa (Glu61) was 3.9, the pKa (Glu64) was 4.4 and the pKa (His124) was 7.1. For the same substance, the pKa (His127) was 7.9 and the pKa (His62) was 7.

For “Thioredoxin (residue set of human thioredoxin) (Homo sapiens (inferred from residue set; not stated))”, the pKa (Asp16) is listed as 4, the pKa (Asp20) is listed as 3.8 and the pKa (Asp58) is listed as 5.3. For the same substance, the pKa (Asp60) was 2.8, the pKa (Asp61) was 4.2 and the pKa (Asp64) was 3.2. The pKa (Glu103) was 4.4, the pKa (Glu13) was 4.4 and the pKa (Glu47) was 4.1. The pKa (Glu56) was 5.1, the pKa (Glu6 [12]) was 4.8 and the pKa (Glu68) was 4.9. For the same substance, the pKa (Glu70) was 4.6, the pKa (Glu88) was 3.7 and the pKa (Glu95) was 4.1. For the same substance, the pKa (Glu98) was 3.9.
